The results in this text go back to patent US20060110769A1, “Regulation of novel human prolyl 4-hydroxylases” (Bayer Aktiengesellschaft, priority 2001, published 2006).

The assay deals with mouse hypoxia inducible factor-1 alpha (mouse) (UniProt Q61221). The assay is described as follows: cell-based or functional assay.
mouse hypoxia inducible factor-1 alpha (mouse), sequence (Q61221 whole entry): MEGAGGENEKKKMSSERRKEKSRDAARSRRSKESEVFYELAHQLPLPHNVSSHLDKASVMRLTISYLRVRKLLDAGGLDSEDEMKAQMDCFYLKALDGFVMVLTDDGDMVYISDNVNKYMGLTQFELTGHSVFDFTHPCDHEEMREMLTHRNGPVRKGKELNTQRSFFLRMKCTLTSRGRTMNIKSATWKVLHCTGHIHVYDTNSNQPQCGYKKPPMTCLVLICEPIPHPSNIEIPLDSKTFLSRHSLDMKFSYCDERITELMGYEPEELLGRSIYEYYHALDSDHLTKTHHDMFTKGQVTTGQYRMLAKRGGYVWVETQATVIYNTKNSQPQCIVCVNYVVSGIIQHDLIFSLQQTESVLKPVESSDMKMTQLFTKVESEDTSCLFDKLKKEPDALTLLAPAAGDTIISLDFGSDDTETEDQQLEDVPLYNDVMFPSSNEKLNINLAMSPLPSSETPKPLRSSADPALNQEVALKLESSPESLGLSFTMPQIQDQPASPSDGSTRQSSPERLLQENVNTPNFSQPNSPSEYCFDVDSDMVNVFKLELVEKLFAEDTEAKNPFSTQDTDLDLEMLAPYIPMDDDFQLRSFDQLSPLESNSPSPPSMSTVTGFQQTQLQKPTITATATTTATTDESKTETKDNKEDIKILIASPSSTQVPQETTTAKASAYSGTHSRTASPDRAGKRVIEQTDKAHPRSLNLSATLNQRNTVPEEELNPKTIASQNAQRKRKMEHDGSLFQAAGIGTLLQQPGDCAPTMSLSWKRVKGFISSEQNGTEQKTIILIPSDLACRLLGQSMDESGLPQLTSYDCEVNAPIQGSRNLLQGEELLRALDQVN

In the case of “EGLN3, human HIF-prolyl-hydroxylase (from UniProt Q9H6Z9 1-239)”, the reduction of the transactivation activity of cotransfected HIF-1 alpha on the hypoxia responsive luciferase reporter (HEK/293 cells, equal amounts of each plasmid) worked out at 90%.
